Positions count from the first letter of the chain named.
B1: MGC37 (antibody)
VH: EVQLVESGGDLVQPGGSLRLSCAASGFTFRNYWMSWVRQTPGKGLEWVANIRQDGSEKYYVDSVKGRFTISRDNAKNLLYLQMNSLRAEDTAVYYCVRDKFCSDENHMHVADDLPRPSISPEPGTVIPLGSHVTFVCRGPVGVQTFRLEKDRRSTYNDTEDVSQPSPSESEARFRIDSVTEGNAGLYRCVYYKPPKWSDQSDFLELLVKGEDVTWALFPHCGADGEDSDYYMDVWGKGTTVTVSS
VL: DIQLTQSPSTLSASVGDRVTISCRASQRLSRSLAWYQQRPRKAPNLLIYKASPLEIGGPSRFTGSGSGTEFTLTISSLQPDDSATYYCQQYSNYSYSFGQGTKLEIR
B2: MGC35 (antibody)
VH: EVQLVESGGGLVQPGGSLRLSCEASGFNSRSYWMTWVRQAPGKGLEWVASINQDATEKNYVDSVKGRFTISRDTAKNSLYLQMNSLRAEDTAVYYCARDRFCGGESHLHGQEDLPRPSISAEPGSVIPLGSLVTFVCRGPVGVHTFRLERGWTYNDTEDVSQAGPSESEARFRMDSVREGNAGLYRCIYYKPPKWSEQSAYLELRVKGGDVTWALLTYCGGDGEESDYPMDVWGKGTTVTVSS
VL: QTVVTQEPSLTVSPGGTVTLTCASSTGPVTSAYYPNWFQQKPGQAPRSLIYNINKKHSWTPDRFSGSLLGGKAALTLSGVQPEDEADYYCLLSCGGAQPWVFGGGTKLTVQ
B3: MGC36 (antibody)
VH: EVVLVESGGGLVQPGGSLRLSCEASGFNSRSYWMTWVRQAPGKGLEWVASINQDGTEKNYVDSVKGRFTISRDSAKNSLYLQMSSLRADDTAVYYCARDRFCGGESHLHGEEDLPRPSISAEPDTVIPLGSHVTFVCRGPVGVHTFRLERGWRYNDTEDVSQAGPSESEARFRIDSVREGNAGLYRCIYYIAPKWSEQSDYLELRVKGGDVTWALLTYCGGDGEESDYPMDVWGKGTTVTVSS
VL: B2 VL with N52S, D62A
B4: MGD30 (antibody)
VH: QVQLQESGPGLVKPSETLSLSCAVTGGSITSSKWWTWVRQGPDKGLEWIGKIYHNGTTNYNPSLKSRVAMSVDKSRNQFSLRLTSVTAADTALYYCATASPFKSHHRTTEKLPRPSISAEPGTVIPLGSRVTFVCRGPVGVQTFRLERETSFTYNDTEDVSQVSPSESEARFRIDSVSEGYAGPYRCVYYKAPKWSEQSDYLDLLVKGEDVTWALTQPQLDPRACPQGDLRMSTDIYCMDVWGKGTTVTVSS
VL: AIRLTQSPSSLSASIGDRVTITCRASQDISTFLAWYQQESGKAPRLLIFAASTLQTGVPSRFSGSGSGTDFTLTISGLQSEDFATYYCQQYYCFPPDFGQGTRLDIK
B5: MGD33 (antibody)
VH: B4 VH with Q1H, R76K, L93V, S151R, F152S
VL: B4 VL with F32Y, T53S
B6: MGD35 (antibody)
VH: QVQLQESGPGLVKPSGTLSLTCAVSGASISSINWWSWVRQTPEKGLEWIGQIHHNGSTNYNPSLKSRVAISVDKSKNQFSLKLTSFTAADTAVYYCATASSLKSQRDTNLPRPSLSAEPGTVIPLGSPVTFVCRGPVGVHTFRLERAGRSTYNDTEDVSHPSPSESEARFRIDSVSEGNAGPYRCVYYKSSKWSEESYCLDLLVKTEDVTWARPQPQLDPRACPQGDLRISTDFYYMDVWGKGTTVTVSS
VL: AIRMTQSPSSLSASTGDRVTITCRTSQAIGTYLAWYQQNPGKAPNLLIYNASTLQSGVPSRFSASGSGTDFTLTISGLQSDDFVTYFCQHYYNYPPAFGQGTRLEIQ
B7: MGD23 (antibody)
VH: QVQLQESGPGLVKPSGTLSLTCSVSGGSISSNKWWSWVRQSPGKGLEWIGEVYQTGITNYNPSLKGRVTMSVDKSKNQFSLRLTSVTAADTAVYYCATISQLRPQGDTEDLPRPSLSAEPGTVIPLGSHVTFVCRGPAGVETFRLERESRFTYNDTEDVSQASPSESEARFRIDSVSEGNAGPYRCLYYKARKWSDQSDYLELLVKGADVTWALPQSQLAPRACPQGELRISTDVFSMNVWGNGTTVTVSS
VL: AVRVTQSPTSLSASTGDRVTITCRTSQYVGNYLDWYQQKPGKAPKLLIHGVSTLQNGVPSRFSGSASGTDFTLNITCLQSEDSATYYCQQYYTSPPDFGQGTRLEIK
B8: MGC1 (antibody)
VH: EVQLVESGGGLVQPGGSLRLSCVASGFNFRKSWMGWVRQAPGKGLEWVANIREDGSESFYADSVKGRFTVSRDNAKKSLYLHINSLRAEDTAVYYCARDRFCNDDEIHRHGQEDLPRPSISAAEGTVIPLGSHVTFVCRGPVGVQTFRLEKDSRSIYNDTENVSQPSPSESEARFRIDSVSEGNAGLYRCVYYKAPKWSAQSDYLELLVKGQEVTWALFTSCGGDGEEPDYDMDVRGKGTTVTVSS
VL: DIVMTQSPDSLAVSLGERATINCKSSQSVLYRSKNKNYLAWFQQKPGQPPKVLIYSTSTRASGVPDRFTGSGSGTDFTLTISSLQAEDVAVYYCLQYYITPYTFGQGTKLEIK
B9: MGC2 (antibody)
VH: EVQLVESGGGLVQPGGSLRLSCAASGFTFSNFWMGWVRQTPGKGLEWVANIKEDGSEKYYVDSVRGRFTISRDSAKNSLYLQMNSLRAEDTAVYYCVRERFCSNHIHKEEHLPRPSISPEPGTVITLGSHVTFVCRGPVGVQTFRLEKDSRSTYNDTEDVSQPSPSESEARFRIDSVSEGYAGLYRCLYYKPPKWSEQSDYLELLVKGDDVTWALYPSCGGDGEASDYNMDVWGKGTTVTVSS
VL: DIQMTQSPSTLSASVGDRVTISCRASQRFSGWLAWYQQKPGKAPNLLIYKASPLAGGGPSRFSGSGSGTDFTLTISSLQPDDSATYYCQHYSNYSYTFGQGTKLEIR

Legend:
Experiment in all cases: flow cytometry, staining of IEs
[1] = target: erythrocytes infected with P. falciparum field isolate 10936
[2] = target: erythrocytes infected with P. falciparum field isolate 10975
[3] = target: erythrocytes infected with P. falciparum field isolate 11014
[4] = target: erythrocytes infected with P. falciparum field isolate 11019
[5] = target: erythrocytes infected with P. falciparum field isolate 9106
[6] = target: erythrocytes infected with P. falciparum field isolate 9215
[7] = target: erythrocytes infected with P. falciparum field isolate 9605
[8] = target: erythrocytes infected with P. falciparum field isolate 9775

| Binder | % parasite recognition [1] [%] | % parasite recognition [2] [%] | % parasite recognition [3] [%] | % parasite recognition [4] [%] | % parasite recognition [5] [%] | % parasite recognition [6] [%] | % parasite recognition [7] [%] | % parasite recognition [8] [%] |
| --- | --- | --- | --- | --- | --- | --- | --- | --- |
| B1 | 4.1 | 7.5 | 5.8 | 51.8 | 7.2 | 9.9 | 22.2 | 4 |
| B2 | 2.5 | 7.4 | 3.6 | 3.2 | 6.5 | 19.5 | 15.9 | 7.2 |
| B3 | 2.7 | 8.6 | 4.6 | 17.9 | 6.9 | 12.4 | 17.9 | 6.2 |
| B4 | 2.6 | 6.5 | 3.4 | 4.4 | 4.2 | 9 | 7.4 | 5.6 |
| B5 | 6.1 | 14.2 | 7 | 9.6 | 4.3 | 15.5 | 12.3 | 8.5 |
| B6 |  |  |  | 6.3 | 6.1 |  | 3.6 |  |
| B7 | 4.3 | 3.4 | 6.3 | 7.8 | 5.7 | 11.4 | 14.7 | 7.3 |
| B8 | 2 | 1.4 | 3.4 | 32.7 | 6.7 | 14.9 | 19.5 | 5.7 |
| B9 | 2.8 | 2.6 | 1.5 | 11.9 | 5.6 | 28.8 | 22.4 | 2.9 |

From US20180186897A1 (INSTITUTE FOR RESEARCH IN BIOMEDICINE, published 2018)
